Experimental data as given in paper PMC6021441, “Structural basis of the correct subunit assembly, aggregation, and intracellular degradation of nylon hydrolase” (Scientific Reports, 2018).
Positions count from the first letter of the chain named. Names and notes keep the numbering of the source. Values joined by “and” are separate entries in the source; they are usually repeats but may differ in a detail not shown here. Equal values may be shown once.

B1: nylon hydrolase NylCp2 (wild type, Arthrobacter plasmid pOAD2-encoded NylC), active enzyme: alpha-beta heterodimer (enzyme)
chain 1: MNTTPVHALTDIDGGIAVDPAPRLAGPPVFGGPGNDAFDLAPVRSTGREMLRFDFPGVSIGAAHYEEGPTGATVIHIPAGARTAVDARGGAVGLSGGYDFNHAICLAGGAGYGLEAGAGVSDALLERLEHRTGFAELQLVSSAVIYDFSARSTAVYPDKALGRAALEFAVPGEFPQGRAGAGMSASAGKVDWDRTEITGQGAAFRRLGDVRILAVVVPNPVGVIVDRAGTVVRGNYDAQTGVRRHPVFDYQEAFAEQVPPVTEAGN
chain 2: TTISAIVTNVRMSPVELNQFAKQVHSSMHRGIQPFHTDMDGDTLFAVTTDEIDLPTTPGSSRGRLSVNATALGAIASEVMWDAVLEAGK
notes: NylCp2, alpha subunit (27 kDa) made by autocleavage of the 355-residue precursor between Asn266 and Thr267; NylCp2, beta subunit (9 kDa) made by autocleavage of the 355-residue precursor between Asn266 and Thr267; also called wild-type NylCp2; monomer molecule A-D; source: E. coli JM109, purified (ammonium sulfate fractionation, anion-exchange, gel filtration)
B2: NylCp2-G^122Y^130A^36Q^263 mutant enzyme (D122G/H130Y/D36A/E263Q), alpha-beta heterodimer (enzyme, Arthrobacter)
chain 1: B1 chain 1 with D36A, D122G, H130Y, E263Q
chain 2: B1 chain 2
notes: NylCp2 alpha subunit with four substitutions; NylCp2 beta subunit; also called NylC-G^122Y^130A^36Q^263; source: E. coli JM109, purified (ammonium sulfate fractionation, anion-exchange, gel filtration)
B3: nylon hydrolase NylCA (wild type, Agromyces), active enzyme: alpha-beta heterodimer (enzyme)
chain 1: B1 chain 1 with G111S, D122G, H130Y, L137A, V225M
chain 2: B1 chain 2
notes: NylCA of Agromyces, alpha subunit; NylCA of Agromyces, beta subunit; source: E. coli clone (plasmid pSKRC4), purified to homogeneity as previously reported
B4: NylCp2-A^137 mutant (L137A), uncleaved precursor (enzyme, Arthrobacter, UniProt Q79F77 1-355, looked up)
chain: MNTTPVHALTDIDGGIAVDPAPRLAGPPVFGGPGNDAFDLAPVRSTGREMLRFDFPGVSIGAAHYEEGPTGATVIHIPAGARTAVDARGGAVGLSGGYDFNHAICLAGGAGYGLEAGAGVSDALLERLEHRTGFAEAQLVSSAVIYDFSARSTAVYPDKALGRAALEFAVPGEFPQGRAGAGMSASAGKVDWDRTEITGQGAAFRRLGDVRILAVVVPNPVGVIVDRAGTVVRGNYDAQTGVRRHPVFDYQEAFAEQVPPVTEAGNTTISAIVTNVRMSPVELNQFAKQVHSSMHRGIQPFHTDMDGDTLFAVTTDEIDLPTTPGSSRGRLSVNATALGAIASEVMWDAVLEAGK
notes: NylCp2 with L137A, obtained as the uncleaved precursor (36 kDa; 355 residues); source: E. coli JM109, purified (ammonium sulfate fractionation, anion-exchange, gel filtration)
B5: NylCp2-G^122A^137 mutant (D122G/L137A), mixture of precursor and alpha and beta subunits (enzyme, Arthrobacter, UniProt Q79F77 1-355, looked up)
chain: B4 chain with D122G
notes: NylCp2 with D122G and L137A; obtained as a mixture of the uncleaved precursor and the alpha (to N266) and beta (from T267) subunits; Written as the one-chain precursor; part of the sample was cleaved at Asn266/Thr267; source: E. coli JM109, purified (ammonium sulfate fractionation, anion-exchange, gel filtration)
B6: NylCp2-G^122 mutant enzyme (D122G), alpha-beta heterodimer (enzyme, Arthrobacter)
chain 1: B1 chain 1 with D122G
chain 2: B1 chain 2
notes: NylCp2 alpha subunit with D122G; NylCp2 beta subunit; also called Gly122 enzyme; source: E. coli JM109, purified (ammonium sulfate fractionation, anion-exchange, gel filtration)
B7: NylCp2-R^122 mutant enzyme (D122R), alpha-beta heterodimer (enzyme, Arthrobacter)
chain 1: B1 chain 1 with D122R
chain 2: B1 chain 2
notes: NylCp2 alpha subunit with D122R; NylCp2 beta subunit; source: E. coli JM109, purified (ammonium sulfate fractionation, anion-exchange, gel filtration)
B8: NylCp2-K^122 mutant enzyme (D122K), alpha-beta heterodimer (enzyme, Arthrobacter)
chain 1: B1 chain 1 with D122K
chain 2: B1 chain 2
notes: NylCp2 alpha subunit with D122K; NylCp2 beta subunit; source: E. coli JM109, purified (ammonium sulfate fractionation, anion-exchange, gel filtration)
B9: NylCp2-V^122 mutant enzyme (D122V), alpha-beta heterodimer (enzyme, Arthrobacter)
chain 1: B1 chain 1 with D122V
chain 2: B1 chain 2
notes: NylCp2 alpha subunit with D122V; NylCp2 beta subunit; source: E. coli JM109, purified (ammonium sulfate fractionation, anion-exchange, gel filtration)
B10: NylCp2-Y^130 mutant enzyme (H130Y), alpha-beta heterodimer (enzyme, Arthrobacter)
chain 1: B1 chain 1 with H130Y
chain 2: B1 chain 2
notes: NylCp2 alpha subunit with H130Y; NylCp2 beta subunit; source: E. coli JM109, purified (ammonium sulfate fractionation, anion-exchange, gel filtration)
B11: NylCp2-G^122Y^130 mutant enzyme (D122G/H130Y), alpha-beta heterodimer (enzyme, Arthrobacter)
chain 1: B1 chain 1 with D122G, H130Y
chain 2: B1 chain 2
notes: NylCp2 alpha subunit with D122G and H130Y; NylCp2 beta subunit; also called NylC-G^122Y^130; source: E. coli JM109, purified (ammonium sulfate fractionation, anion-exchange, gel filtration)

Molecular target: the molecule itself
Test: AUC; sedimentation velocity (40,000 rpm) and sedimentation equilibrium (14,000 rpm); each NylC enzyme 0.34 mg ml^-1 in phosphate buffer, 20 °C; self-association of the monomer units

| Molecule | stoichiometry N |
| --- | --- |
| B1 | 3 and 2 |
| B2 | 4 |
| B3 | 4 |
| B4 | 2 |
| B5 | 3 |

molecular target: nylon hydrolase NylCK (wild type, Kocuria), active enzyme: alpha-beta heterodimer (Kocuria); test: as above

| Molecule | stoichiometry N |
| --- | --- |
| nylon hydrolase NylCK (wild type, Kocuria), active enzyme: alpha-beta heterodimer (from UniProt Q79F77 1-266; Q79F77 267-355) | 4 |

Molecular target: the molecule itself
Test: crystal structure; sitting-drop vapor diffusion, ammonium sulfate, 0.1 M HEPES pH 7.5, 0.2 M NaCl, 25% glycerol; space group C222_(1), two molecules (A/B dimer) in the asymmetric unit, tetramer by the crystallographic two-fold axis

| Molecule | stoichiometry N |
| --- | --- |
| B1 | 4 |
| B6 | 4 |
| B7 | 4 |
| B8 | 4 |
| B9 | 4 |
| B10 | 4 |
| B11 | 4 |
